Data published in US20160326232A1 (Janssen / Centocor, published 2016).

T1: chimpanzee PSMA extracellular domain with 6His and Avi tag (PSMW8), biotinylated (chimpanzee, UniProt Q04609 44-750 (human entry), biotinylated ; Biotinylated, presumably on the Avi tag, which is not in the letters. Glycosylated (expressed in HEK cells). PSMA forms a homodimer; one subunit is given.)
T1 construct: Expressed in 293HEK-expi cells; buffer with ZnCl2 to stabilize PSMA dimerization; also called chimp PSMA; Pan troglodytes PSMA
T1 chain: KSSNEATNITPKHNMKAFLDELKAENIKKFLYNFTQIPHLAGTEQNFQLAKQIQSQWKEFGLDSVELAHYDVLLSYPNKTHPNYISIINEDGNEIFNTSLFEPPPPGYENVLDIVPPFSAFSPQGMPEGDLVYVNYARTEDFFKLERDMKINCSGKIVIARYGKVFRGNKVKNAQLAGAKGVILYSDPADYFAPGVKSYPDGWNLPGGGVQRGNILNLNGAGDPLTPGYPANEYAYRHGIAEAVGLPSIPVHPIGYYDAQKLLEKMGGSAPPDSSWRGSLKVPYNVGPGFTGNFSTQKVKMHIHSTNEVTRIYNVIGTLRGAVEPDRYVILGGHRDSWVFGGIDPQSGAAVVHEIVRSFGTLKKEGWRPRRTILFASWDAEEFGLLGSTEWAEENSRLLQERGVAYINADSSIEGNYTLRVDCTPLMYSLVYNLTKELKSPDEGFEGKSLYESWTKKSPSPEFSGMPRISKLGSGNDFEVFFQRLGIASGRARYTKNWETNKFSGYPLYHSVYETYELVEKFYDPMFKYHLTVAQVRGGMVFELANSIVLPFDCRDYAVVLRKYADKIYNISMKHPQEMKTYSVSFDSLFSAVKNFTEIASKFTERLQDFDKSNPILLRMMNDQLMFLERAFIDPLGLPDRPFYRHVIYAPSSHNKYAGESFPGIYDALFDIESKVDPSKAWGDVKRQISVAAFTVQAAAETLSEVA

T2: cynomolgus monkey PSMA extracellular domain with 6His and Avi tag (PSMW1), biotinylated (cynomolgus monkey, UniProt Q04609 44-750 (human entry), biotinylated ; Biotinylated, presumably on the Avi tag, which is not in the letters. Glycosylated (expressed in HEK cells). PSMA forms a homodimer; one subunit is given.)
T2 construct: Expressed in 293HEK-expi cells; buffer with ZnCl2 to stabilize PSMA dimerization; A cyno PSMA-Fc fusion was also used in some plate-based pannings; also called cyno PSMA; Macaca Fascicularis PSMA
T2 chain: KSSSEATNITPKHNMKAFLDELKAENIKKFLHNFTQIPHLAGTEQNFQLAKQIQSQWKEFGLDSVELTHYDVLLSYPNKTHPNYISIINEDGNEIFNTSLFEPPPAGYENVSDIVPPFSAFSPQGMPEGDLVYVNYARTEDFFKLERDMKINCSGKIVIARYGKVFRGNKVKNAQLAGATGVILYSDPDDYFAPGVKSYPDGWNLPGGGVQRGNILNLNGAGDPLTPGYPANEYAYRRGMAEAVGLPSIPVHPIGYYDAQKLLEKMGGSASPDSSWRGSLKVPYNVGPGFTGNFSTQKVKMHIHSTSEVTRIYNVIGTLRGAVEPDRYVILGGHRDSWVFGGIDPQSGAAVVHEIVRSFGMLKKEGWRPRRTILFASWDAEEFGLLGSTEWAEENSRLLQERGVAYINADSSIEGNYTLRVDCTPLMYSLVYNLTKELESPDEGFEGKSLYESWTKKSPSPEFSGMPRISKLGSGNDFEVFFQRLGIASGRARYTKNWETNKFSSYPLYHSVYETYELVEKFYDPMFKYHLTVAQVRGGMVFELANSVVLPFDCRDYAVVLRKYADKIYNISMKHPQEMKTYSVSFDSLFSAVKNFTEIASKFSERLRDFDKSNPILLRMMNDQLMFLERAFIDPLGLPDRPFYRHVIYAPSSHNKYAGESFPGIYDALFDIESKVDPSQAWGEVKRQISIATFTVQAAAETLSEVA

B1: P229CR5P819_H11 (designed binder)
chain: LPAPKNLVVSRVTEDSARLSWDIDEQRDWFDSFLIQYQESEKVGEAIVLTVPGSERSYDLTGLKPGTEYTVSIYGVYHVYRSSNPLSAIFTT
notes: FN3 domain (Centyrin), unconjugated, as screened from E. coli lysate; also called P229CR9P819-H11; not shown: C-terminal poly-histidine tag
B2: His-tagged P233FR9-H10 centyrin (designed binder)
chain: LPAPKNLVVSRVTEDSARLSWTAPDAAFDSFAIGYWEWDDDGEAIVLTVPGSERSYDLTGLKPGTEYPVYIAGVKGGQWSFPLSAIFTT
notes: FN3 domain (Centyrin), unconjugated; used in the screen and in the crystal structure with cynoPSMA; also called H10 FN3 domain; P233FR9_10; not shown: C-terminal His-tag
B3: P233FR9P1001_B5-5 (designed binder)
chain: LPAPKNLVVSRVTEDSARLSWTAPDAAFDSFTIGYWEWDDDGEAIVLTVPGSERSYDLTGLKPGTEYPVYIAGVKGGQWSFPLSAIFTT
notes: FN3 domain (Centyrin), unconjugated, as screened from E. coli lysate; not shown: C-terminal poly-histidine tag
B4: P233FR9P1001_D9 (designed binder)
chain: LPAPKNLVVSRVTEDSARLSWTAPDAAFDSFPIGYWEWDDDGEAIVLTVPGSERSYDLTGLKPGTEYWVYIAGVKGGQWSFPLSAIFTT
notes: as for B3
B5: P233FR9P1001_H3-1 (designed binder)
chain: LPAPKNLVVSRVTEDSARLSWTAPDAAFDSFPIGYWEWDDDGEAIVLTVPGSERSYDLTGLKPGTEYHVYIAGVKGGQWSFPLSAIFTT
notes: as for B3
B6: P258AR6P1070_A05 (designed binder)
chain: LPAPKNLVVSRVTEDSARLSWTIDEQRDWFDSFLIQYQESEKVGEAIVLTVPGSERSYDLTGLKPGTEYTVSIYGVYHVYRSNPLSAIFTT
notes: as for B3
B7: P258AR6P1070_F09 (designed binder)
chain: LPAPKNLVVSRVTEDSARLSWTIDEQRDWFESFLIQYQESEKVGEAIVLTVPGSERSYDLTGLKPGTEYTVSIYGVYHVYRSNPLSAIFTT
notes: as for B3
B8: P258AR6P1071_D02 (designed binder)
chain: LPAPKNLVVSRVTEDSARLSWAIDEQRDWFESFLIQYQESEKVGEAIVLTVPGSERSYDLTGLKPGTEYTVSIYGVYHVYRSNPLSAIFTT
notes: as for B3
B9: P258AR6P1071_F04 (designed binder)
chain: LPAPKNLVVSRVTEDSARLSWVIDEQRDWFDSFLIQYQESEKVGEAIVLTVPGSERSYDLTGLKPGTEYTVSIYGVYHVYRSNPLSAIFTT
notes: as for B3
B10: P258AR6P1071_G03 (designed binder)
chain: LPAPKNLVVSRVTEDSARLSWDIDEQRDWFDSFLIQYQESEKVGEAIVLTVPGSERSYDLTGLKPGTEYTVSIYGVYHVYRSNPLSAIFTT
notes: as for B3
B11: P234CR9_H01 (designed binder)
chain: LPAPKNLVVSRVTEDSARLSWEWWVIPGDFDSFLIQYQESEKVGEAIVLTVPGSERSYDLTGLKPGTEYTVSIYGVVNSGQWNDTSNPLSAIFTT
notes: as for B3
B12: P234CR9_A7 (designed binder)
chain: LPAPKNLVVSRVTEDSARLSWGEQFTIFDSFLIQYQESEKVGEAIVLTVPGSERSYDLTGLKPGTEYTVSIYGASGYEWFHAFGSSNPLSAIFTT
notes: FN3 domain (Centyrin), unconjugated, as screened from E. coli lysate; also called P234CR9_A07; not shown: C-terminal poly-histidine tag

Biological target: T1, chimpanzee PSMA extracellular domain …
Experiment: hit of CIS-display panning and ELISA screen on biotinylated PSMA (same antigen as in panning; signal at least 10-fold above background); column Antigen species
Method: (§1) Neutravidin-coated plates were blocked for 1 h in Starting Block T20 (Pierce) and then coated with biotinylated PSMA (using same antigen as in panning) or negative control for 1 h. Plates were rinsed with TBST and diluted lysate was applied to plates for 1 h. Following additional rinses, wells were treated with HRP-conjugated anti-Centyrin antibody (PAB25) for 1 h and then assayed with POD (Roche). Centyrins with signals at least 10-fold above background were selected for further analysis.

Binding result, binds:
B1, B2, B3, B4, B5

Biological target: T2, cynomolgus monkey PSMA extracellular …
Experiment: as above
Method: as §1

Binding result, binds:
B6, B7, B8, B9, B10, B11, B12
